The assay has as its target bACE2_(Ra5538)-Fc (Rhinolophus affinis). In words: BLI. (In general: BLI is a label-free optical method that tracks binding on a fibre tip over time.)

We go through 1 substance from paper PMC11908486.

As for “SARS-CoV-2-RBD-monomer (from UniProt P0DTC2) (domain or fragment)”, the Kd (commonly the free concentration of one partner at which half of the binding sites on the other are occupied at equilibrium, for simple one-to-one binding) was determined as 705 nM.
